From the supplement of paper PMC10266784

B1: library; numbered along this chain (parent)
chain: MAAAAAAAAEQQSSNGPVKKSMREKAVERRSVNKEHNSNFKAGYIPIDEDRLHKTGLRGRKGNLAICVIILLFILAVINLIITLVIWAVIRIGPNGCDSMEFHESGLLRFKQVSDMGVIHPLYKSTVGGRRNENLVITGNNQPIVFQQGTTKLSVENNKTSITSDIGMQFFDPRTQNILFSTDYETHEFHLPSGVKSLNVQKASTERITSNATSDLNIKVDGRAIVRGNEGVFIMGKTIEFHMGGNMELKAENSIILNGSVMVSTTRLPSSSSGDQLGSGDWVRYKLCMCADGTLFKVQVTSQNMGCQISDNPCGNTH

Variants of: B1
Assay: SGCB cell-surface expression functional score (HA stain, bin4 vs bin1, normalised to synonymous) (log10 ratio); higher = more cell-surface SGCB (functional)
In short: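 HEK293 cells stably expressing alpha-, gamma- and delta-sarcoglycan received codon-saturation libraries of HA-tagged, YFP-fused human beta-sarcoglycan by lentiviral transduction at MOI <0.1, performed in duplicate. Cells positive for YFP were sorted after 72 hours and cultured for 5–7 days, then stained on ice with Alexa Fluor 647 anti-HA and fixed. Fixed cells were sorted into four 5% intensity bins and amplicon-sequenced, and the log ratio of highest-bin to lowest-bin variant frequency, as a median over codons and transductions, gives the functional score. Per section, synonymous variants were scaled to mean 0, SD 0.5.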

First: MAAAAAAAAEQQSSNGPVKKSMREKAVERRSVNKEHNSNFKAGYIPIDEDRLHKTGLRGRKGNLAICVIILLFILAVINLIITLVIWAVIRIGPNGCDSMEFHESGLLRFKQVSDMGVIHPLYKSTVGGRRNENLVITGNNQPYVFQQGTTKLSVENNKTSITSDIGMQFFDPRTQNILFSTDYETHEFHLPSGVKSLNVQKASTERITSNATSDLNIKVDGRAIVRGNEGVFIMGKTIEFHMGGNMELKAENSIILNGSVMVSTTRLPSSSSGDQLGSGDWVRYKLCMCADGTLFKVQVTSQNMGCQISDNPCGNTH [I144Y]
Second: MAAAAAAAAEQQSSNGPVKKSMREKAVERRSVNKEHNSNFKAGYIPIDEDRLHKTGLRGRKGNLAICVIILLFILAVINLIITLVIWAVIRIGPNGCDSMEFHESGLLRFKQVSDMGVIHPLYKSTVGGRRNENLVITGNNQPIHFQQGTTKLSVENNKTSITSDIGMQFFDPRTQNILFSTDYETHEFHLPSGVKSLNVQKASTERITSNATSDLNIKVDGRAIVRGNEGVFIMGKTIEFHMGGNMELKAENSIILNGSVMVSTTRLPSSSSGDQLGSGDWVRYKLCMCADGTLFKVQVTSQNMGCQISDNPCGNTH [V145H]
The “SGCB cell-surface expression functional score (log10)” value of the first is lower: -1.1 for the first, -0.24 for the second.

MAAAAAAAAEQQSSNGPVKKSMREKAVERRSVNKEHNSNFKAGYIPIDEDRLHKTGLRGRKGNLAICVIILLFILAVINLIITLVIWAVIRIGPNGCDSMEFHESGLLRFKQVSDMGVIHPLYKSTVGGRRNENLVITGNNQPIGFQQGTTKLSVENNKTSITSDIGMQFFDPRTQNILFSTDYETHEFHLPSGVKSLNVQKASTERITSNATSDLNIKVDGRAIVRGNEGVFIMGKTIEFHMGGNMELKAENSIILNGSVMVSTTRLPSSSSGDQLGSGDWVRYKLCMCADGTLFKVQVTSQNMGCQISDNPCGNTH [V145G] and MAAAAAAAAEQQSSNGPVKKSMREKAVERRSVNKEHNSNFKAGYIPIDEDRLHKTGLRGRKGNLAICVIILLFILAVINLIITLVIWAVIRIGPNGCDSMEFHESGLLRFKQVSDMGVIHPLYKSTVGGRRNENLVITGNNQPIDFQQGTTKLSVENNKTSITSDIGMQFFDPRTQNILFSTDYETHEFHLPSGVKSLNVQKASTERITSNATSDLNIKVDGRAIVRGNEGVFIMGKTIEFHMGGNMELKAENSIILNGSVMVSTTRLPSSSSGDQLGSGDWVRYKLCMCADGTLFKVQVTSQNMGCQISDNPCGNTH [V145D] are within 0.2 log units of each other in “SGCB cell-surface expression functional score (log10)” value: -0.81 for the first, -0.79 for the second.

Compared with MAAAAAAAAEQQSSNGPVKKSMREKAVERRSVNKEHNSNFKAGYIPIDEDRLHKTGLRGRKGNLAICVIILLFILAVINLIITLVIWAVIRIGPNGCDSMEFHESGLLRFKQVSDMGVIHPLYKSTVGGRRNENLVITGNNQPIIFQQGTTKLSVENNKTSITSDIGMQFFDPRTQNILFSTDYETHEFHLPSGVKSLNVQKASTERITSNATSDLNIKVDGRAIVRGNEGVFIMGKTIEFHMGGNMELKAENSIILNGSVMVSTTRLPSSSSGDQLGSGDWVRYKLCMCADGTLFKVQVTSQNMGCQISDNPCGNTH [V145I], MAAAAAAAAEQQSSNGPVKKSMREKAVERRSVNKEHNSNFKAGYIPIDEDRLHKTGLRGRKGNLAICVIILLFILAVINLIITLVIWAVIRIGPNGCDSMEFHESGLLRFKQVSDMGVIHPLYKSTVGGRRNENLVITGNNQPIFFQQGTTKLSVENNKTSITSDIGMQFFDPRTQNILFSTDYETHEFHLPSGVKSLNVQKASTERITSNATSDLNIKVDGRAIVRGNEGVFIMGKTIEFHMGGNMELKAENSIILNGSVMVSTTRLPSSSSGDQLGSGDWVRYKLCMCADGTLFKVQVTSQNMGCQISDNPCGNTH [V145F] is lower in “SGCB cell-surface expression functional score (log10)” value: 0.52 for the first, -0.11 for the second.

First: MAAAAAAAAEQQSSNGPVKKSMREKAVERRSVNKEHNSNFKAGYIPIDEDRLHKTGLRGRKGNLAICVIILLFILAVINLIITLVIWAVIRIGPNGCDSMEFHESGLLRFKQVSDMGVIHPLYKSTVGGRRNENLVITGNNQPICFQQGTTKLSVENNKTSITSDIGMQFFDPRTQNILFSTDYETHEFHLPSGVKSLNVQKASTERITSNATSDLNIKVDGRAIVRGNEGVFIMGKTIEFHMGGNMELKAENSIILNGSVMVSTTRLPSSSSGDQLGSGDWVRYKLCMCADGTLFKVQVTSQNMGCQISDNPCGNTH [V145C]
Second: MAAAAAAAAEQQSSNGPVKKSMREKAVERRSVNKEHNSNFKAGYIPIDEDRLHKTGLRGRKGNLAICVIILLFILAVINLIITLVIWAVIRIGPNGCDSMEFHESGLLRFKQVSDMGVIHPLYKSTVGGRRNENLVITGNNQPIKFQQGTTKLSVENNKTSITSDIGMQFFDPRTQNILFSTDYETHEFHLPSGVKSLNVQKASTERITSNATSDLNIKVDGRAIVRGNEGVFIMGKTIEFHMGGNMELKAENSIILNGSVMVSTTRLPSSSSGDQLGSGDWVRYKLCMCADGTLFKVQVTSQNMGCQISDNPCGNTH [V145K]
The “SGCB cell-surface expression functional score (log10)” value of the first is lower: -0.73 for the first, -0.12 for the second.

MAAAAAAAAEQQSSNGPVKKSMREKAVERRSVNKEHNSNFKAGYIPIDEDRLHKTGLRGRKGNLAICVIILLFILAVINLIITLVIWAVIRIGPNGCDSMEFHESGLLRFKQVSDMGVIHPLYKSTVGGRRNENLVITGNNQPIAFQQGTTKLSVENNKTSITSDIGMQFFDPRTQNILFSTDYETHEFHLPSGVKSLNVQKASTERITSNATSDLNIKVDGRAIVRGNEGVFIMGKTIEFHMGGNMELKAENSIILNGSVMVSTTRLPSSSSGDQLGSGDWVRYKLCMCADGTLFKVQVTSQNMGCQISDNPCGNTH [V145A] and MAAAAAAAAEQQSSNGPVKKSMREKAVERRSVNKEHNSNFKAGYIPIDEDRLHKTGLRGRKGNLAICVIILLFILAVINLIITLVIWAVIRIGPNGCDSMEFHESGLLRFKQVSDMGVIHPLYKSTVGGRRNENLVITGNNQPIEFQQGTTKLSVENNKTSITSDIGMQFFDPRTQNILFSTDYETHEFHLPSGVKSLNVQKASTERITSNATSDLNIKVDGRAIVRGNEGVFIMGKTIEFHMGGNMELKAENSIILNGSVMVSTTRLPSSSSGDQLGSGDWVRYKLCMCADGTLFKVQVTSQNMGCQISDNPCGNTH [V145E] are within 0.2 log units of each other in “SGCB cell-surface expression functional score (log10)” value: -0.01 for the first, -0.03 for the second.
